We go through one substance from patent US20050042208A1.

The experiment concerns the target CD44 existing on the cell surface of CTLs (human) (UniProt P16070). Briefly: cell-based or functional assay.
UniProt P16070, sequence (P16070 21-742): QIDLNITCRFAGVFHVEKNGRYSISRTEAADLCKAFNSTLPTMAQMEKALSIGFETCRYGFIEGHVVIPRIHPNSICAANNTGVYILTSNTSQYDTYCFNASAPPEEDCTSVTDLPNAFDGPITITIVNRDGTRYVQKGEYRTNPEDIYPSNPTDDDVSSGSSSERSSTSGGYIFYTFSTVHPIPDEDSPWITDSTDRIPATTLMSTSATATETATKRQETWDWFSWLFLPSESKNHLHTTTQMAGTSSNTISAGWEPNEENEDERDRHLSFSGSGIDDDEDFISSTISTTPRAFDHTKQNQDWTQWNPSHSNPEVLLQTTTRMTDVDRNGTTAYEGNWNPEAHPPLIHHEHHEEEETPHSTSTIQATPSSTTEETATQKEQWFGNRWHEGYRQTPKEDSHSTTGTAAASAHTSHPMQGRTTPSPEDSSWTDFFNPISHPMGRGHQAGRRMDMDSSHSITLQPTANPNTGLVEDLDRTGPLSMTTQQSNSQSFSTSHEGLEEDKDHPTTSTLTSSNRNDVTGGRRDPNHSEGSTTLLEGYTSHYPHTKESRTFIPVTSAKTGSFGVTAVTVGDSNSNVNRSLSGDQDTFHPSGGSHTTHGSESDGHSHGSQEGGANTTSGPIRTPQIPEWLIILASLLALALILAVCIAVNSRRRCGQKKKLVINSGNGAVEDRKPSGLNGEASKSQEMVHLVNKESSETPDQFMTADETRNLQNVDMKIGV

In the case of “anti-CD44 antibody (hyaluronic acid-bound Non-blocking antibody; HA Non-blocking Anti-CD44 Antibody), monoclonal, manufactured by Ancell”, the Cytotoxic Activity (%), E/T Ratio 3, peptide pulse +, after expansion with antibody amounted to 32.4%; the Cytotoxic Activity (%), E/T Ratio 3, peptide pulse -, after expansion with antibody was determined as 10.3%; the Cytotoxic Activity (%), E/T Ratio 10, peptide pulse +, after expansion with antibody worked out at 60.1%; the Cytotoxic Activity (%), E/T Ratio 10, peptide pulse -, after expansion with antibody was 14.2%. Besides, the Cytotoxic Activity (%), E/T Ratio 30, peptide pulse +, after expansion with antibody was found to be 105% and the Cytotoxic Activity (%), E/T Ratio 30, peptide pulse -, after expansion with antibody came to 21.2%.
